Experimental data reported in patent US20250066499A1 (SUNSHINE GUOJIAN PHARMACEUTICAL SHANGHAI, published 2025).
Numbering of substitutions follows the chain as printed.

Tests used:
CD73-ND-P134A = molecular target: T1, CD73-ND-P134A (human, UniProt P21589 27-317); test: ELISA, high plateau value (OD 450 nm)
T1 construct: Alanine mutant of CD73-ND
T1 sequence: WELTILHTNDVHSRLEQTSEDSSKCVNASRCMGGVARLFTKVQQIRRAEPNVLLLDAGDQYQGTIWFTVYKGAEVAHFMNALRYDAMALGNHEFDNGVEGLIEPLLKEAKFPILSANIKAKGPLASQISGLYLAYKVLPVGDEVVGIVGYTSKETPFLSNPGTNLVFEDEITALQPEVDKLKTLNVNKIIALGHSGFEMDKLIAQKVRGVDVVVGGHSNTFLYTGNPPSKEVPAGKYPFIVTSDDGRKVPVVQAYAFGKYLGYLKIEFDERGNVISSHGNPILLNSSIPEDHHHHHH
Procedure: (§1) The ELISA plates were coated with SA protein diluted to 1.5 μg/mL in coating buffer (50 mM carbonate coating buffer, pH 9.6) and incubated overnight at 4° C. The supernatant was discarded, and the plates were washed three times with PBST. Then, 5% skimmed milk powder prepared with PBS was added for blocking and the plates were incubated for 2 h at 37° C. After washing the plates once with PBST, CD73-biotin protein (prepared by biotinylating CD73-His protein according to the EZ-Link NHS-Biotin Reagent instructions) was diluted to 0.5 μg/mL and added at 100 μL/well for incubation at room temperature for 1 h. The plates were washed three times with PBST, and the prepared murine-derived monoclonal antibodies against human CD73 were serially diluted with 1% BSA buffer prepared with PBST and added to the ELISA plates at 100 μl/well. The plates were incubated at 37° C. for 1 h. After washing the plates three times with PBST, HRP-labeled goat anti-mouse IgG secondary antibody was added and the plates were incubated for 30 min at 37° C. After washing the plates three times with PBST, the residual droplets were patted dry on absorbent paper as much as possible. Then, 100 μl of TMB color developing solution was added to each well, and the plates were incubated in the dark at room temperature for 5 min for color development. Subsequently, 50 μl of 2M H₂SO₄ stop solution was added to each well to terminate the substrate reaction. The OD values were read at 450 nm using a multimode microplate reader to analyze the binding ability of the tested antibodies to the target antigen human CD73-His.
(§2) Referring to the experimental method in Example 3, the affinity of 48A11-HuV33 for various mutant proteins of CD73-ND was determined. The SA protein was diluted to 1 μg/mL for coating the ELISA plates, and the biotinylated CD73 protein (CD73-biotin) was used at a concentration of 0.1 μg/mL.

CD73-ND-L133A = molecular target: T2, CD73-ND-L133A (human, UniProt P21589 27-317); test: ELISA, high plateau value (OD 450 nm)
T2 construct: Alanine mutant of CD73-ND
T2 sequence: T1 sequence with L133A, A134P
Procedure: as §1, §2

CD73-ND-Y132A = molecular target: T3, CD73-ND-Y132A (human, UniProt P21589 27-317); test: ELISA, high plateau value (OD 450 nm)
T3 construct: Alanine mutant of CD73-ND
T3 sequence: T1 sequence with Y132A, A134P
Procedure: as §1, §2

human CD73-His protein = molecular target: T4, human CD73-His protein (human, UniProt P21589 27-549); test: ELISA as in Example 3, antigen CD73-his, antibody titrated, absorbance 450 nm
T4 construct: Expressed in HEK-293F with a signal peptide that is not specified; In the ELISAs it was biotinylated with EZ-Link NHS-Biotin (CD73-biotin) and captured on streptavidin; in SPR and the enzyme assay it was used as CD73-His; also called CD73-his antigen; CD73-biotin
T4 sequence: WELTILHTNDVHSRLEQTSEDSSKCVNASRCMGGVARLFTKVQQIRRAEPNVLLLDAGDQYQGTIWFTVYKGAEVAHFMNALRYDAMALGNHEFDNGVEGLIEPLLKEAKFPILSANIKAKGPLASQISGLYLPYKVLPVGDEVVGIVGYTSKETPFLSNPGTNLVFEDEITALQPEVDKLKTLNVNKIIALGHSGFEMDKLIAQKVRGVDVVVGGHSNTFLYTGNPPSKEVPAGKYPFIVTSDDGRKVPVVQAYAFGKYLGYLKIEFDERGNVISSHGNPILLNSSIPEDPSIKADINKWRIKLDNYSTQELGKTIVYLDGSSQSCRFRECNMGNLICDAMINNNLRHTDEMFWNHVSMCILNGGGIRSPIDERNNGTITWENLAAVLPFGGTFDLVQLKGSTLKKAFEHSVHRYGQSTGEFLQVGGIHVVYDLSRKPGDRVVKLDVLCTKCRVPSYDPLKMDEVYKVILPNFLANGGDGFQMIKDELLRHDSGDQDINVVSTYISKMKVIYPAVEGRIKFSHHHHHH

B1: 48A11-HuV33 (antibody, human IgG4, V domains shown)
VH: QVQLVQSGAEVKKPGASVKVSCKASGYTFTSYWMHWVRQAPGQGLEWIGEINPSIGRTNYNEKFKSRVTLTRDTSTSTAYMELSSLRSEDTAVYYCARRVYGTMDYWGQGTLVTVSS
VL: DIQMTQSPSSLSASVGDRVTITCKASQDINSYLSWFQQKPGKSPKLLIYRANIWVDGVPSRFSGSGSGQDYTFTISSLQPEDIATYYCLQYDELYTFGQGTKVEIK
notes: Humanized
For B1, which Top (CD73-ND-P134A) is on record?
The Top was 1.97.

What about the Top (CD73-ND-L133A) of the same binder?
Its Top is 0.922.

And the Top (CD73-ND-Y132A)?
The Top was 0.254.

And the “EC50 (read off the curve)” value (human CD73-His protein)?
Its value is roughly 0.04 nM.
